From article PMC4966879
Like-named read-outs stand apart in the source and are kept apart here.

Assays:
Experiment in all cases: SAXS
[1] = molecular target: T1, HUαβ (Escherichia coli, UniProt P0ACF0;P0ACF4 1-90;1-90)
[2] = molecular target: HUαα G82E (Escherichia coli, UniProt P0ACF0 1-90, G82E)
[3] = molecular target: HUαα V45E (Escherichia coli, UniProt P0ACF0 1-90, V45E)
[4] = molecular target: T2, HUαα (Escherichia coli, UniProt P0ACF0 1-90)
[5] = molecular target: HUα38α38 (Escherichia coli, UniProt P0ACF0 1-90, E38K;V42L)
[6] = molecular target: HUαα P63E (Escherichia coli, UniProt P0ACF0 1-90, P63E)
[7] = molecular target: T2, HUαα; remark: listed apart in the source
[8] = molecular target: T1, HUαβ; remark: listed apart in the source

Measured: binding result

B1: 80-bp DNA (dsDNA)
DNA 1: AATGAGGTAACAACGAAAGCAGATGATAGCTGCTTATCAATTTGTTGCAAACAAGTAGCCGCGCCCAATGAGGTAACAAT
DNA 2: ATTGTTACCTCATTGGGCGCGGCTACTTGTTTGCAACAAATTGATAAGCAGCTATCATCTGCTTTCGTTGTTACCTCATT
binds: [1] | [2] | [3] | [4] | [5] | [6]

B2: 20-bp DNA (dsDNA)
DNA 1: GTTCAATTGTTGTTAACTTG
DNA 2: CAAGTTAACAACAATTGAAC
binds: [7] | [8]
